The source of these data is patent EP3088890B1 (Chugai Seiyaku Kabushiki Kaisha, dated 2020).

Assay [1] deals with GPC3 core (sGPC3-His) protein (human) (UniProt P51654). Kind of assay: competition ELISA on plate-bound sGPC3; unlabeled GT30 (100-fold) against competitor biotin-labeled GT114; signal of the labeled antibody.
Assay [2] has the same target. Kind of assay: ELISA on plate-bound sGPC3; biotin-labeled GT30, no unlabeled antibody.
The target is the same in assay [3]. The assay can be described thus: competition ELISA on plate-bound sGPC3; unlabeled GT30 (100-fold) against competitor biotin-labeled GT114. In general terms: ELISA stands for enzyme-linked immunosorbent assay.
The target is the same in assay [4]. The assay can be described thus: competition ELISA on plate-bound sGPC3; unlabeled GT30 (100-fold) against competitor biotin-labeled GT165; signal of the labeled antibody.
For assay [5] the target is unchanged. Kind of assay: competition ELISA on plate-bound sGPC3; unlabeled GT30 (100-fold) against competitor biotin-labeled GT165.
Assay [6] shares this target. Kind of assay: competition ELISA on plate-bound sGPC3; unlabeled GT30 (100-fold) against competitor biotin-labeled GT607; signal of the labeled antibody.
For assay [7] the target is unchanged. The assay can be described thus: competition ELISA on plate-bound sGPC3; unlabeled GT30 (100-fold) against competitor biotin-labeled GT30; signal of the labeled antibody.
The target in assay [8] is T1, AW5, C-terminally His-tagged recombinant product of positions 1 to 357 of GPC3 (human, UniProt P51654 25-357).
T1 construct: Expressed in CHO cells, cell pellets used in Western blot; The range is as printed and starts at position 1; also called AW5 (1-357); not shown: C-terminal His tag
T1 sequence (P51654 25-357): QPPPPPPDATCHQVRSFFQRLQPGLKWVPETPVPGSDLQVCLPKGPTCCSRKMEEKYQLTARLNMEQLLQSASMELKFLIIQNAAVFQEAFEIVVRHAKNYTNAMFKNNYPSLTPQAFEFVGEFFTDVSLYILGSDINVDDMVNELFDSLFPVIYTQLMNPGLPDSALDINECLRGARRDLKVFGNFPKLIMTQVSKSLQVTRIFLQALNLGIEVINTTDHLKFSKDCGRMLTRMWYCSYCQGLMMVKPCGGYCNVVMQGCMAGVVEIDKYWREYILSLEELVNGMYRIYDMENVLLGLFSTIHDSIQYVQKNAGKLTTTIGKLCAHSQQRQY
Kind of assay: Western blot analysis, CHO cell pellets. In general terms: A western blot detects proteins with antibodies after separation by electrophoresis.

Assay [9] addresses GPC3 core (sGPC3-His) protein (human) (UniProt P51654). The assay can be described thus: competition ELISA on plate-bound sGPC3; unlabeled GT30 (100-fold) against competitor biotin-labeled GT607.
The target in assay [10] is T2, GPC3 peptide 321-350 (SEQ ID NO: 17) (human).
T2 construct: Synthetic 30-residue peptide of GPC3
T2 peptide: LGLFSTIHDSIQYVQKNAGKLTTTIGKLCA
The assay can be described thus: peptide ELISA, peptide on plate, antibody at 2 µg/mL.

Assay [11] addresses GPC3 core (sGPC3-His) protein (human) (UniProt P51654). The assay can be described thus: competition ELISA on plate-bound sGPC3; unlabeled GT30 (100-fold) inhibits competitor biotin-labeled GT30.
Assay [12] concerns the target T3, AW2, C-terminally His-tagged recombinant product of positions 1 to 196 of GPC3 (human, UniProt P51654 25-196).
T3 construct: Expressed in CHO cells, cell pellets used in Western blot; The range is as printed and starts at position 1; also called AW2 (1-196); not shown: C-terminal His tag
The assay can be described thus: Western blot, pellets of CHO cells expressing the product.

Assay [13] deals with T4, AW3, C-terminally His-tagged recombinant product of positions 1 to 218 of GPC3 (human, UniProt P51654 25-218).
T4 construct: Expressed in CHO cells, cell pellets used in Western blot; The range is as printed and starts at position 1; not shown: C-terminal His tag
T4 sequence (P51654 25-218): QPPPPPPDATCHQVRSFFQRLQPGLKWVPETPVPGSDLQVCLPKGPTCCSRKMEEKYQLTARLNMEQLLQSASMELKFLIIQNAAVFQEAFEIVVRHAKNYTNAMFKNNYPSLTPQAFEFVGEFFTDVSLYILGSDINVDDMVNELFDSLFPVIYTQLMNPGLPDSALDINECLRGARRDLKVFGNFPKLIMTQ
The description is as above.

Sequence of GPC3 core (sGPC3-His) protein (human) (P51654 25-563 S495A/S509A): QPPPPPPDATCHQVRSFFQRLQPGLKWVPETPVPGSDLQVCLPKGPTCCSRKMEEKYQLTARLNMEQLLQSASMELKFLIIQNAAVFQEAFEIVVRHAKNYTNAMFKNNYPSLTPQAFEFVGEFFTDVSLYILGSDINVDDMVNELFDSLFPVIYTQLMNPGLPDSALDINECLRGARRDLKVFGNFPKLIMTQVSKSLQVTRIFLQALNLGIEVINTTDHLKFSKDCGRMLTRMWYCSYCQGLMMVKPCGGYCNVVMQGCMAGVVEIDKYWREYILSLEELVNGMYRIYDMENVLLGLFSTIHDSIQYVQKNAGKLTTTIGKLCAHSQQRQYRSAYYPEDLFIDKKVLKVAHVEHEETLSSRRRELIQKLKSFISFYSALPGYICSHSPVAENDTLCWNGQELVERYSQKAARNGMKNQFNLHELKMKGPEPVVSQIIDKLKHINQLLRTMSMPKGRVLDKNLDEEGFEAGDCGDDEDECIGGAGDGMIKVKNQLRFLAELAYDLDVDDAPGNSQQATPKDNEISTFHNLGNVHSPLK
T3 sequence (P51654 25-196): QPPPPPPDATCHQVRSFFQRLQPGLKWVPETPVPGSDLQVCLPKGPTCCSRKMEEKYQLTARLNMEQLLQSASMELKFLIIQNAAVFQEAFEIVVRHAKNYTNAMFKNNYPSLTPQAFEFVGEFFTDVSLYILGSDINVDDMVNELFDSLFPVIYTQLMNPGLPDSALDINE

B1: GT30 antibody (antibody, IgG1, V domains shown)
VH: QVQLQQSGAELARPGASVKLSCRASGYTFTSYGISWMMQRTGQGLEWIGEIYPRSGITYYNEKFKGKATLTADKSSSTAYMQLSSLTSEDSAVYFCARDVSDGYLFPYWGQGTLVTVSA
VL: DIQMTQSPASLSASVGETVTITCRTSENIYSYLAWYQQKQGKSPQLLVYNAKTLPEGVPSRFSGSGSGTQFSLKINSLQPEDFGSYYCQHHYGTPPTFGGGTKLEIKR
Regarding B1, the O.D. 450 was determined as 2.31 O.D. 450 in assay [1]; 1.84 O.D. 450 in assay [2]; 0.098 O.D. 450 in assay [4]; 2.12 O.D. 450 in assay [6]; 0.07 O.D. 450 in assay [7]. Moreover, the Inhibitory effect (%) is less than 0% in assay [3], 94% in assay [5], 3% in [9] and 96% in [11]. Moreover, the binding result in assay [8] was “binds”; in assay [10], “binds”; in assay [12] it was “no binding”; in assay [13], “no binding”.
